Source: publication PMC5869396 (Toxins, 2018)

How the values were obtained:
[1] = target: T1, recombinant Shiga toxin-2a B subunit (rStx2aB), C-terminal 6xHis tag (Escherichia coli O157:H7 EDL933 …); experiment: crystal structure; details: both partners purified
T1 construct: source: E. coli BL21 (pET22b), periplasmic extract, purified (IMAC, SEC); not shown: His6, C-terminal, kept

[2] = target: T2, Stx2a holotoxin (Stx2a A subunit with the Stx2a B pentamer) (Escherichia coli, Stx2a strain not …, UniProt P09385;P09386); experiment: pull-down; details: one partner purified
T2 construct: copies: 1 + 5

B1: Nb113 (expressed from pMECS, C-terminal HA and His6 tags) (VHH)
VHH: QVQLQESGGGLVQPGGSLRLSCAASGFTFSSYYMSWVRQAPGKGPEWVSGINTGGVGTRYADSVKGRFTISRDNAKNTLYLQMNSLKPEDTALYYCAIGEGGNRNYWGQGTQVTVSS
notes: source: E. coli WK6 (pMECS), periplasmic extract, purified (IMAC, SEC)
[1]
  stoichiometry N: 5 per pentamer

B2: monovalent Nb113 (expressed from pHEN6c, His6 tag, without the HA tag) (VHH)
VHH: B1 VHH
notes: also called Nb113 monovalent; monomeric Nb113; source: E. coli WK6 (pHEN6c), purified (IMAC, SEC)
[2]
  binding result: binds
